Measured values taken from PMC8618245, “Mechanisms of CP190 Interaction with Architectural Proteins in Drosophila Melanogaster” (International Journal of Molecular Sciences, 2021).

T1: 6×His-Thioredoxin-fused CP190 1–126 (BTB domain) (Drosophila melanogaster), Q24478
T1 chain: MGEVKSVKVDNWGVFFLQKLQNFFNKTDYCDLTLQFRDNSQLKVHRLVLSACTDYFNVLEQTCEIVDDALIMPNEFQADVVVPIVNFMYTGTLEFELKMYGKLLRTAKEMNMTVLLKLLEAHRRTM


Target: the molecule itself
Assay: cross-linking; glutaraldehyde, thioredoxin-fused BTB domains at 5 μM, 10 min at room temperature, 20 mM HEPES pH 7.7, 150 mM NaCl, 20 mM imidazole, 1 mM β-mercaptoethanol; SDS-PAGE, silver staining
Settings: not given

| Binder | stoichiometry N |
| --- | --- |
| 6×His-Thioredoxin-fused CP190 1–126 F15A (domain or fragment, Drosophila melanogaster, UniProt Q24478 1-126, looked up, CP190, Drosophila melanogaster, residues 1–126 (BTB domain); source: E. coli BL21, co-expressed with the GST fusion, in lysate (pull-down); bacterial expression (cross-linking)) MGEVKSVKVDNWGVAFLQKLQNFFNKTDYCDLTLQFRDNSQLKVHRLVLSACTDYFNVLEQTCEIVDDALIMPNEFQADVVVPIVNFMYTGTLEFELKMYGKLLRTAKEMNMTVLLKLLEAHRRTM | 2 |
| 6×His-Thioredoxin-fused CP190 1–126 K19A (domain or fragment, Drosophila melanogaster, UniProt Q24478 1-126, looked up, CP190, Drosophila melanogaster, residues 1–126 (BTB domain); source: E. coli BL21, co-expressed with the GST fusion, in lysate (pull-down); bacterial expression (cross-linking)) MGEVKSVKVDNWGVFFLQALQNFFNKTDYCDLTLQFRDNSQLKVHRLVLSACTDYFNVLEQTCEIVDDALIMPNEFQADVVVPIVNFMYTGTLEFELKMYGKLLRTAKEMNMTVLLKLLEAHRRTM | 2 |
| 6×His-Thioredoxin-fused CP190 1–126 K117S (domain or fragment, Drosophila melanogaster, UniProt Q24478 1-126, looked up, CP190, Drosophila melanogaster, residues 1–126 (BTB domain); source: E. coli BL21, co-expressed with the GST fusion, in lysate (pull-down); bacterial expression (cross-linking)) MGEVKSVKVDNWGVFFLQKLQNFFNKTDYCDLTLQFRDNSQLKVHRLVLSACTDYFNVLEQTCEIVDDALIMPNEFQADVVVPIVNFMYTGTLEFELKMYGKLLRTAKEMNMTVLLSLLEAHRRTM | 2 |
| 6×His-Thioredoxin-fused CP190 1–126 V7A (domain or fragment, Drosophila melanogaster, UniProt Q24478 1-126, looked up, CP190, Drosophila melanogaster, residues 1–126 (BTB domain); also called BTB^V7A; source: E. coli BL21, co-expressed with the GST fusion, in lysate (pull-down); bacterial expression (cross-linking)) MGEVKSAKVDNWGVFFLQKLQNFFNKTDYCDLTLQFRDNSQLKVHRLVLSACTDYFNVLEQTCEIVDDALIMPNEFQADVVVPIVNFMYTGTLEFELKMYGKLLRTAKEMNMTVLLKLLEAHRRTM | 2 |
| 6×His-Thioredoxin-fused CP190 1–126 V114A (domain or fragment, Drosophila melanogaster, UniProt Q24478 1-126, looked up, CP190, Drosophila melanogaster, residues 1–126 (BTB domain); source: E. coli BL21, co-expressed with the GST fusion, in lysate (pull-down); bacterial expression (cross-linking)) MGEVKSVKVDNWGVFFLQKLQNFFNKTDYCDLTLQFRDNSQLKVHRLVLSACTDYFNVLEQTCEIVDDALIMPNEFQADVVVPIVNFMYTGTLEFELKMYGKLLRTAKEMNMTALLKLLEAHRRTM | 2 |
| 6×His-Thioredoxin-fused CP190 1–126 V114N (domain or fragment, Drosophila melanogaster, UniProt Q24478 1-126, looked up, CP190, Drosophila melanogaster, residues 1–126 (BTB domain); source: E. coli BL21, co-expressed with the GST fusion, in lysate (pull-down); bacterial expression (cross-linking)) MGEVKSVKVDNWGVFFLQKLQNFFNKTDYCDLTLQFRDNSQLKVHRLVLSACTDYFNVLEQTCEIVDDALIMPNEFQADVVVPIVNFMYTGTLEFELKMYGKLLRTAKEMNMTNLLKLLEAHRRTM | 2 |
| 6×His-Thioredoxin-fused CP190 1–126 L118A (domain or fragment, Drosophila melanogaster, UniProt Q24478 1-126, looked up, CP190, Drosophila melanogaster, residues 1–126 (BTB domain); also called BTB^L118A; source: E. coli BL21, co-expressed with the GST fusion, in lysate (pull-down); bacterial expression (cross-linking)) MGEVKSVKVDNWGVFFLQKLQNFFNKTDYCDLTLQFRDNSQLKVHRLVLSACTDYFNVLEQTCEIVDDALIMPNEFQADVVVPIVNFMYTGTLEFELKMYGKLLRTAKEMNMTVLLKALEAHRRTM | 2 |

Target: T1, 6×His-Thioredoxin-fused CP190 1–126 …
Assay: as above
Settings: remark: other sources report otherwise

| Binder | stoichiometry N |
| --- | --- |
| 6×His-Thioredoxin-fused CP190 1–126 (BTB domain), Q24478 1-126 (domain or fragment) MGEVKSVKVDNWGVFFLQKLQNFFNKTDYCDLTLQFRDNSQLKVHRLVLSACTDYFNVLEQTCEIVDDALIMPNEFQADVVVPIVNFMYTGTLEFELKMYGKLLRTAKEMNMTVLLKLLEAHRRTM | 2 |
